From US20240067722A1

What was measured:
[1] = biological target: Recombinant human LAG-3 protein (Fc Chimera), R&D 2319-L3 (human) (UniProt P18627); test: flow cytometry competition, huLAG-3-Fc on HLA-DR expressing cells, VHH at 500 nM
[2] = biological target: human LAG-3 expressed on cells (human) (UniProt P18627)

| percent block of the LAG-3/HLA-DR interaction [1] | GFP expression by 2D3 cells (measure of TCR signaling) [2] | Binder |
| --- | --- | --- |
| 75% | – | huLAG-3 specific VHH 3185 (VHH) VHH: QVQLQESGGGLVQPGGSLKLSCAASGFTWDYSAIGWFRQAPGKEREGVSCITSSGKDTQYLDSVKGRFTISRDNTKNTVYLQMNNLKPEDTAVYYCAAPGRVRGSCNGRWDYWGQGTQVTVSS |
| 75% | 2 fold | huLAG-3 specific VHH 3150 (VHH) VHH: QVQLQESGGGLVQAGGSLRLSCAASGITFDDYAIGWFRQAPGKEREGVSCIRSSDDSTYYADSVKGRFTISSDNAKNTVYLQMNSLKPEDTAVYYCARDVYSDCKGPYDSWGRGTQVTVSS |
